Values quoted from earlier work in PMC5399307.
pKd: −log10 of the molar value.

Target: ezrin FERM (Homo sapiens) (UniProt P15311)
Sequence of UniProt P15311 (P15311 1-299): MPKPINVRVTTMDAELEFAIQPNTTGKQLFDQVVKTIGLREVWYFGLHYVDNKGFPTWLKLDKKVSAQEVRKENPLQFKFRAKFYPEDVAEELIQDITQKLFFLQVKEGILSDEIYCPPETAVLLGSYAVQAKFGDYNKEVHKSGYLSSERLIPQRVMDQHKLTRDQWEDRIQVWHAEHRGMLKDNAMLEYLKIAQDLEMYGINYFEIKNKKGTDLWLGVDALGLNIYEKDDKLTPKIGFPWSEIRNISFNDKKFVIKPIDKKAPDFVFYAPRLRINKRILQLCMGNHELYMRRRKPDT

pKd: 7.29
Substance: NHERF1 (from UniProt O14745)
